Values quoted from earlier work in article PMC2883863.

Target: Cys36 (UniProt position 73, FWTPWCPFCNA)
Conditions: not stated (quoted literature value for Mtb DsbE)

Question: With “Disulfide bond forming protein DsbE (Mtb DsbE, Rv2878c, MPT53) (Mycobacterium tuberculosis)” as the substance, how does the pKa read?
Answer: 5.35 ± 0.2
